# Where a chain is given by its changes, count along the chain named.
# B1: 嵌合抗体ID 3 (antibody, human IgG4 S228P, kappa, V domains shown)
# VH: QVQLQQPGAELVKPGAPVKLSCKASGYTFTSYWMNWVKQRPGRGLEWIGRIDSSDSETHYNQKFKDKATLTVDKSSSTAYIQLSSLTSEDSAVYYCARQGEGLRRSWFPYWGQGTLVIVSA
# VL: DIVLTQSPASLAVSLGQRATISCRASKSVSTSGYSYIHWYQQKPGQPPKLLIYVASNLQSGVPARFSGSGSGTDFTLNIHPVEEEDAATYYCQHIRELPWTFGGGTKLEIKR
# B2: 人源化抗体ID 5 (antibody, human IgG4 S228P, kappa)
# heavy: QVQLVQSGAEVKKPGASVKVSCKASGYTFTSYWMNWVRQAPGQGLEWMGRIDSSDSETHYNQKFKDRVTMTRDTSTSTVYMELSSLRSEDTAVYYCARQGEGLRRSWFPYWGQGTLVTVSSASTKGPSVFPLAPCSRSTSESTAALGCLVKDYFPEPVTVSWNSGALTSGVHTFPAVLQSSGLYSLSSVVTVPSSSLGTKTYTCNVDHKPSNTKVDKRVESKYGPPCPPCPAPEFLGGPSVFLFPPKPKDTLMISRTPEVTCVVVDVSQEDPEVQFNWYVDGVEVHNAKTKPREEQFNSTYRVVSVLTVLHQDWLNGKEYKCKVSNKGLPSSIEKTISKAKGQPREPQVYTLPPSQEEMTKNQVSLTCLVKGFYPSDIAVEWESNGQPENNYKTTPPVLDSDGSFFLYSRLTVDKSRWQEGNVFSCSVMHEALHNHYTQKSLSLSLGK
# light: DIVMTQSPDSLAVSLGERATINCRASKSVSTSGYSYIHWYQQKPGQPPKLLIYVASNLQSGVPDRFSGSGSGTDFTLTISSVQAEDVAVYYCQHIRELPWTFGQGTKVEIKRTVAAPSVFIFPPSDEQLKSGTASVVCLLNNFYPREAKVQWKVDNALQSGNSQESVTEQDSKDSTYSLSSTLTLSKADYEKHKVYACEVTHQGLSSPVTKSFNRGEC
# notes: Humanized, human IgG4; also called VH1+VL2
# B3: 人源化抗体ID 2 (antibody, human IgG4 S228P, kappa)
# heavy: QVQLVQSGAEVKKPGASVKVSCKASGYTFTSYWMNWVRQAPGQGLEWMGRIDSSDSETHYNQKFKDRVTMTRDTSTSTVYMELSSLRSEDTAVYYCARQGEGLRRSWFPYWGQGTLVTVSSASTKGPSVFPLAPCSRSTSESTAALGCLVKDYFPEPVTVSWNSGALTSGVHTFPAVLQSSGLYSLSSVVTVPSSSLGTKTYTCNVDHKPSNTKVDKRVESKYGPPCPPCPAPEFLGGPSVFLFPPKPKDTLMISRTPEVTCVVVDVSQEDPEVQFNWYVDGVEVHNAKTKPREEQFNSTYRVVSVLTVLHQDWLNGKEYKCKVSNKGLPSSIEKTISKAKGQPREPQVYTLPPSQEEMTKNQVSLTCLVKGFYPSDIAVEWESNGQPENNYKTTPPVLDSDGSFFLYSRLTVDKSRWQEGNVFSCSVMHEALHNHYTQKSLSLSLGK
# light: B2 light with V108L
# notes: Humanized, human IgG4 constant region and human light chain constant region, expressed in 293F cells; also called VH1+VL3
# B4: 人源化抗体ID 4 (antibody, human IgG4 S228P, kappa, V domains shown)
# VH: QVQLVQSGAEVKKPGASVKVSCKASGYTFTSYWMNWVRQAPGQGLEWMGRIDSSDSETHYNQKFKDRVTMTRDTSTSTVYMELSSLRSEDTAVYYCARQGEGLRRSWFPYWGQGTLVTVSS
# VL: DIVMTQSPDSLAVSLGERATINCRASKSVSTSGYSYIHWYQQKPGQPPKLLIYVASNLQSGVPDRFSGSGSGTDFTLTISSLQAEDVAVYYCQHIRELPWTFGQGTKVEIKR
# notes: Humanized, human IgG4; also called VH1+VL1
# Biological target: T1, (融合小鼠Fc的)CD47 (human, UniProt Q08722 19-139, limits assumed)
# T1 construct: also called CD47-mFC; not shown: mouse Fc
# T1 sequence (Q08722 19-139 limits assumed): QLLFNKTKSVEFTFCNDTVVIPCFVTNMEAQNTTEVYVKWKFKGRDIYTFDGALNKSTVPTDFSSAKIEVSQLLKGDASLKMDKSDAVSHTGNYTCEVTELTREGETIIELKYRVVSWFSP
# Test: SPR Biacore 8K, antibody on CM5 chip, CD47-mFc as analyte, 1:1 fit, 25 C
Binder,Kd,koff,kon
B1,0.668 nM,0.000265 s⁻¹,397000 M⁻¹ s⁻¹
B2,0.623 nM,0.000303 s⁻¹,486000 M⁻¹ s⁻¹
B3,0.623 nM,0.000283 s⁻¹,454000 M⁻¹ s⁻¹
B4,0.79 nM,0.00038 s⁻¹,482000 M⁻¹ s⁻¹

# From patent publication CN116478288A (ZHEJIANG BLUE SHIELD PHARMA CO LTD, dated 2023)
